Measurements published in patent publication US20240016931A1 (JIANGSU HENGRUI PHARMACEUTICALS, published 2024).

Each binder was assayed against T1, His-tagged human TSLP antigen (huTSLP-his) (human) (assay: ELISA, coated huTSLP-his;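 further: binding of antibodies to plate-bound TSLP read as absorbance at 450 nm after TMB colour development, EC50 derived from binding curves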).
T1 construct: Secreted from HEK293E and purified on nickel; whole entry named; also called Human TSLP-his
Description: The plate was incubated at 4° C. overnight. After the liquid was discarded, 5% skim milk (skim milk powder from Brightdairy) blocking solution diluted with PBS was added at 200 μL/well, and the plate was incubated in an incubator at 37° C. for 2 h for blocking. After the blocking, the blocking solution was discarded, and the plate was washed 3 times with a PBST buffer (PBS containing 0.1% (v/v) tween-20, pH 7.4). […] After the incubation, the plate was washed 3 times with PBST. […] After the plate was washed 6 times with PBST, a TMB chromogenic substrate (KPL, 52-00-03) was added at 50 μL/well, and the plate was incubated at room temperature for 10-15 min. Then, 1 M H₂SO₄ was added at 50 μL/well to stop the reaction. The absorbance at 450 nm was read with a NOVOStar microplate reader, and the EC₅₀ values for the binding of the TSLP antibodies to TSLP were calculated.

EC50	Binder
144 pM	hu119-05 (antibody, human IgG1, kappa, IgG1-YTE, kappa) heavy: EVQLVQSGAEVKKPGSSVKVSCKASGGTFSTYNMHWVRQAPGQGLEWMGAIYPGNGETSYNQKFKDRVTITADKSTSTAYMELSSLRSEDTAVYYCAREDDYGEGYFDVWGQGTTVTVSSASTKGPSVFPLAPSSKSTSGGTAALGCLVKDYFPEPVTVSWNSGALTSGVHTFPAVLQSSGLYSLSSVVTVPSSSLGTQTYICNVNHKPSNTKVDKKVEPKSCDKTHTCPPCPAPELLGGPSVFLFPPKPKDTLYITREPEVTCVVVDVSHEDPEVKFNWYVDGVEVHNAKTKPREEQYNSTYRVVSVLTVLHQDWLNGKEYKCKVSNKALPAPIEKTISKAKGQPREPQVYTLPPSRDELTKNQVSLTCLVKGFYPSDIAVEWESNGQPENNYKTTPPVLDSDGSFFLYSKLTVDKSRWQQGNVFSCSVMHEALHNHYTQKSLSLSPGK light: DIVLTQSPDSLAVSLGERATINCRASESVDNSGLSFMHWYQQKPGQPPKLLIYRASNLGSGVPDRFSGSGSGTDFTLTISSLQAEDVAVYYCQQINTDPLTFGQGTKLEIKRTVAAPSVFIFPPSDEQLKSGTASVVCLLNNFYPREAKVQWKVDNALQSGNSQESVTEQDSKDSTYSLSSTLTLSKADYEKHKVYACEVTHQGLSSPVTKSFNRGEC
203 pM	hu119-12 (antibody, IgG1, V domains shown, IgG1-YTE, kappa) VH: EVQLVQSGAEVKKPGSSVKVSCKASGFTFSTYNMHWVKHAPGQGLEWIGAIYPGNGETSYNQKFKDRATLTVDKSTSTAYMELSSLRSEDTAVYYCAREDDYGEGYFDVWGQGTTVTVSS VL: DIVMTQSPDSLAVSLGERATINCRASESVDNSGLSFMHWYQQKPGQPPKLLLYRASNLGSGIPDRFSGSGSGTDFTLTISSLQAEDVAVYYCQQINTDPLTFGQGTKLEIKR
202 pM	hu119-08 (antibody, human IgG1, kappa, IgG1-YTE, kappa) heavy: EVQLVQSGAEVKKPGSSVKVSCKASGFTFSTYNMHWVKHAPGQGLEWIGAIYPGNGETSYNQKFKDRATLTVDKSTSTAYMELSSLRSEDTAVYYCAREDDYGEGYFDVWGQGTTVTVSSASTKGPSVFPLAPSSKSTSGGTAALGCLVKDYFPEPVTVSWNSGALTSGVHTFPAVLQSSGLYSLSSVVTVPSSSLGTQTYICNVNHKPSNTKVDKKVEPKSCDKTHTCPPCPAPELLGGPSVFLFPPKPKDTLYITREPEVTCVVVDVSHEDPEVKFNWYVDGVEVHNAKTKPREEQYNSTYRVVSVLTVLHQDWLNGKEYKCKVSNKALPAPIEKTISKAKGQPREPQVYTLPPSRDELTKNQVSLTCLVKGFYPSDIAVEWESNGQPENNYKTTPPVLDSDGSFFLYSKLTVDKSRWQQGNVFSCSVMHEALHNHYTQKSLSLSPGK light: DIVLTQSPDSLAVSLGERATINCRASESVDNSGLSFMHWYQQKPGQPPKLLIYRASNLGSGVPDRFSGSGSGTDFTLTISSLQAEDVAVYYCQQINTDPLTFGQGTKLEIKRTVAAPSVFIFPPSDEQLKSGTASVVCLLNNFYPREAKVQWKVDNALQSGNSQESVTEQDSKDSTYSLSSTLTLSKADYEKHKVYACEVTHQGLSSPVTKSFNRGEC
221 pM	hu119-06 (antibody, human IgG1, kappa, IgG1-YTE, kappa) heavy: EVQLVQSGAEVKKPGSSVKVSCKASGFTFSTYNMHWVRQAPGQGLEWMGAIYPGNGETSYNQKFKDRVTLTVDKSTSTAYMELSSLRSEDTAVYYCAREDDYGEGYFDVWGQGTTVTVSSASTKGPSVFPLAPSSKSTSGGTAALGCLVKDYFPEPVTVSWNSGALTSGVHTFPAVLQSSGLYSLSSVVTVPSSSLGTQTYICNVNHKPSNTKVDKKVEPKSCDKTHTCPPCPAPELLGGPSVFLFPPKPKDTLYITREPEVTCVVVDVSHEDPEVKFNWYVDGVEVHNAKTKPREEQYNSTYRVVSVLTVLHQDWLNGKEYKCKVSNKALPAPIEKTISKAKGQPREPQVYTLPPSRDELTKNQVSLTCLVKGFYPSDIAVEWESNGQPENNYKTTPPVLDSDGSFFLYSKLTVDKSRWQQGNVFSCSVMHEALHNHYTQKSLSLSPGK light: DIVLTQSPDSLAVSLGERATINCRASESVDNSGLSFMHWYQQKPGQPPKLLIYRASNLGSGVPDRFSGSGSGTDFTLTISSLQAEDVAVYYCQQINTDPLTFGQGTKLEIKRTVAAPSVFIFPPSDEQLKSGTASVVCLLNNFYPREAKVQWKVDNALQSGNSQESVTEQDSKDSTYSLSSTLTLSKADYEKHKVYACEVTHQGLSSPVTKSFNRGEC
233 pM	hu119-10 (antibody, human IgG1, kappa, V domains shown, IgG1-YTE, kappa) VH: EVQLVQSGAEVKKPGSSVKVSCKASGFTFSTYNMHWVRQAPGQGLEWMGAIYPGNGETSYNQKFKDRVTLTVDKSTSTAYMELSSLRSEDTAVYYCAREDDYGEGYFDVWGQGTTVTVSS VL: DIVMTQSPDSLAVSLGERATINCRASESVDNSGLSFMHWYQQKPGQPPKLLLYRASNLGSGIPDRFSGSGSGTDFTLTISSLQAEDVAVYYCQQINTDPLTFGQGTKLEIKR
149 pM	hu119-09 (antibody, human IgG1, kappa, V domains shown, IgG1-YTE, kappa) VH: EVQLVQSGAEVKKPGSSVKVSCKASGGTFSTYNMHWVRQAPGQGLEWMGAIYPGNGETSYNQKFKDRVTITADKSTSTAYMELSSLRSEDTAVYYCAREDDYGEGYFDVWGQGTTVTVSS VL: DIVMTQSPDSLAVSLGERATINCRASESVDNSGLSFMHWYQQKPGQPPKLLLYRASNLGSGIPDRFSGSGSGTDFTLTISSLQAEDVAVYYCQQINTDPLTFGQGTKLEIKR
273 pM	hu119-29 (antibody, human IgG1, kappa, V domains shown, IgG1-YTE, kappa; also called hu119VH3 + hu119VL2-N31Q) VH: EVQLVQSGAEVKKPGSSVKVSCKASGFTFSTYNMHWVKHAPGQGLEWIGAIYPGNGETSYNQKFKDRATLTVDKSTSTAYMELSSLRSEDTAVYYCAREDDYGEGYFDVWGQGTTVTVSS VL: DIVLTQSPDSLAVSLGERATINCRASESVDQSGLSFMHWYQQKPGQPPKLLIYRASNLGSGVPDRFSGSGSGTDFTLTISSLQAEDVAVYYCQQINTDPLTFGQGTKLEIKR
265 pM	hu119-28 (antibody, human IgG1, kappa, V domains shown, IgG1-YTE, kappa; also called hu119VH3 + hu119VL2-N31S) VH: EVQLVQSGAEVKKPGSSVKVSCKASGFTFSTYNMHWVKHAPGQGLEWIGAIYPGNGETSYNQKFKDRATLTVDKSTSTAYMELSSLRSEDTAVYYCAREDDYGEGYFDVWGQGTTVTVSS VL: DIVLTQSPDSLAVSLGERATINCRASESVDSSGLSFMHWYQQKPGQPPKLLIYRASNLGSGVPDRFSGSGSGTDFTLTISSLQAEDVAVYYCQQINTDPLTFGQGTKLEIKR
219 pM	hu179-06 (antibody, human IgG1, kappa, V domains shown, IgG1-YTE, kappa) VH: EVQLVQSGAEVKKPGSSVKVSCKASGYTFSNYLIEWVRQAPGQGLEWIGVIDPGNGDTNYNENFKGRATLTADKSTSTAYIELSSLRSEDTAVYYCAREDNTGTAFDYWGQGTTVTVSS VL: DIVMTQSPDSLAVSLGERATINCKASQSVSSDVTWYQQKPGQSPKLLIYYVSNHYTGVPDRFSGSGSGTDFTLTISSLQAEDVAVYYCQQHHRFPLTFGQGTKLEIKR
125 pM	hu179-01 (antibody, human IgG1, kappa, V domains shown, IgG1-YTE, kappa) VH: EVQLVQSGAEVKKPGSSVKVSCKASGGTFSNYLIEWVRQAPGQGLEWMGVIDPGNGDTNYNENFKGRVTITADKSTSTAYMELSSLRSEDTAVYYCAREDNTGTAFDYWGQGTTVTVSS VL: DIVMTQSPDSLAVSLGERATINCKASQSVSSDVTWYQQKPGQPPKLLIYYVSNHYTGVPDRFSGSGSGTDFTLTISSLQAEDVAVYYCQQHHRFPLTFGQGTKLEIKR
138 pM	hu179-03 (antibody, human IgG1, kappa, V domains shown, IgG1-YTE, kappa) VH: EVQLVQSGAEVKKPGSSVKVSCKASGYTFSNYLIEWVRQAPGQGLEWMGVIDPGNGDTNYNENFKGRVTLTADKSTSTAYMELSSLRSEDTAVYYCAREDNTGTAFDYWGQGTTVTVSS VL: DIVMTQSPDSLAVSLGERATINCKASQSVSSDVTWYQQKPGQPPKLLIYYVSNHYTGVPDRFSGSGSGTDFTLTISSLQAEDVAVYYCQQHHRFPLTFGQGTKLEIKR
144 pM	hu179-12 (antibody, human IgG1, kappa, V domains shown, IgG1-YTE, kappa) VH: EVQLVQSGAEVKKPGSSVKVSCKASGYTFSNYLIEWVKQAPGQGLEWIGVIDPGNGDTNYNENFKGKATLTADKSTSTAYIELSRLRSEDTAVYYCAREDNTGTAFDYWGQGTTVTVSS VL: DIVMTQSPDSLAVSLGERATINCKASQSVSSDVTWYQQKPGQPPKLLIYYVSNHYTGVPDRFSGSGSGTDFTLTISSLQAEDVAVYYCQQHHRFPLTFGQGTKLEIKR
170 pM	hu179-02 (antibody, human IgG1, kappa, V domains shown, IgG1-YTE, kappa) VH: EVQLVQSGAEVKKPGSSVKVSCKASGGTFSNYLIEWVRQAPGQGLEWMGVIDPGNGDTNYNENFKGRVTITADKSTSTAYMELSSLRSEDTAVYYCAREDNTGTAFDYWGQGTTVTVSS VL: DIVMTQSPDSLAVSLGERATINCKASQSVSSDVTWYQQKPGQSPKLLIYYVSNHYTGVPDRFSGSGSGTDFTLTISSLQAEDVAVYYCQQHHRFPLTFGQGTKLEIKR
189 pM	hu179-04 (antibody, human IgG1, kappa, V domains shown, IgG1-YTE, kappa) VH: EVQLVQSGAEVKKPGSSVKVSCKASGYTFSNYLIEWVRQAPGQGLEWMGVIDPGNGDTNYNENFKGRVTLTADKSTSTAYMELSSLRSEDTAVYYCAREDNTGTAFDYWGQGTTVTVSS VL: DIVMTQSPDSLAVSLGERATINCKASQSVSSDVTWYQQKPGQSPKLLIYYVSNHYTGVPDRFSGSGSGTDFTLTISSLQAEDVAVYYCQQHHRFPLTFGQGTKLEIKR
448 pM	hu179-07 (antibody, human IgG1, kappa, V domains shown, IgG1-YTE, kappa) VH: EVQLVQSGAEVKKPGSSVKVSCKASGYTFSNYLIEWVRQAPGQGLEWIGVIDPGNGDTNYNENFKGRATLTADKSTSTAYIELSSLRSEDTAVYYCAREDNTGTAFDYWGQGTTVTVSS VL: DIVMTQSPDSLAVSLGERATINCKASQSVSSDVTWYQQKPGQSPKLLIYYVSNHYTGVPDRFSGSGSGTDFTFTISSLQAEDVAVYYCQQHHRFPLTFGQGTKLEIKR
142 pM	hu179-05 (antibody, human IgG1, kappa, V domains shown, IgG1-YTE, kappa) VH: EVQLVQSGAEVKKPGSSVKVSCKASGYTFSNYLIEWVRQAPGQGLEWIGVIDPGNGDTNYNENFKGRATLTADKSTSTAYIELSSLRSEDTAVYYCAREDNTGTAFDYWGQGTTVTVSS VL: DIVMTQSPDSLAVSLGERATINCKASQSVSSDVTWYQQKPGQPPKLLIYYVSNHYTGVPDRFSGSGSGTDFTLTISSLQAEDVAVYYCQQHHRFPLTFGQGTKLEIKR
201 pM	hu179-13 (antibody, human IgG1, kappa, V domains shown, IgG1-YTE, kappa) VH: EVQLVQSGAEVKKPGSSVKVSCKASGYTFSNYLIEWVKQAPGQGLEWIGVIDPGNGDTNYNENFKGKATLTADKSTSTAYIELSRLRSEDTAVYYCAREDNTGTAFDYWGQGTTVTVSS VL: DIVMTQSPDSLAVSLGERATINCKASQSVSSDVTWYQQKPGQSPKLLIYYVSNHYTGVPDRFSGSGSGTDFTLTISSLQAEDVAVYYCQQHHRFPLTFGQGTKLEIKR
202 pM	Ch179 (antibody, human IgG1, kappa, V domains shown, murine variable regions on human IgG1-YTE / kappa; also called chimeric antibody corresponding to mab179) VH: QVQLQQSGAELVRPGTSVKVSCKASGYAFTNYLIEWVKQRPGQGLEWIGVIDPGNGDTNYNENFKGKATLTADKSSSTAYIELSRLTSEDSAVYFCAREDNTGTAFDYWGQGTTLTVSS VL: SIVMTQTPKFLLVSAGDRVTISCKASQSVSSDVTWYQQKPGQSPKLLIYYVSNHYTGVPDRFTGSGYGTDFTFTISSVQAEDLAVYFCQQHHRFPLTFGAGTKLELKR
